The values that follow come from patent US20240269292A1.

Non-standard residues stand in square brackets, D forms with d. No end group written: not given here. *: point of attachment. Dmt = Cc1cc(O)cc(C)c1C[C@H](N)C(=O)O; stearyl ester = CCCCCCCCCCCCCCCCCCO*

Data set [1] is classed as physicochemical. The conditions noted are these: EY005-stearyl solubilized in methyl laurate, incubated 1 hour, HPLC.
Procedure: Kd values were calculated as [unbound]/[bound] fraction prodrug under each condition.
In data set [2] the target is Albumin (Homo sapiens, UniProt P02768). As to the kind of experiment: Fluorescence microscopy of complexation of FITC-labeled drug with particulates. In kind it is binding.
Text: (§1) As described herein, formation of MTT-prodrug-complex particulates can be verified experimentally by direct visualization. For example, the MTT-prodrug EY005-stearyl was fluorescently labeled with fluorescein isothiocyanate (FITC) and admixed with different complexation agents. The resultant mixture was then visualized under direct fluorescence microscopy. […] In contrast, FITC-labeled EY005-stearyl was not observed to form drug-complex particulates with silica microbeads (see FIG. 24A-24D), indicating the process of complexation and drug-complex particulate formation is highly dependent on favorable noncovalent interaction between drug and complexation agent.
(§2) Further, this noncovalent interaction is specifically mediated by the conjugation moiety of the MTT-prodrug. FITC-labeled EY005-stearyl that had been admixed with complexation agent was treated with an aqueous solution of carboxyesterase (0.1 μg/mL) to hydrolyze the ester bond of the prodrug, releasing the fluorescent peptide.
as §1, with “(FIG. 24C),” for “(see FIG. 24A-24D),”

Assay in data set [3]: as above
The conditions noted are these: for Fluorescence after carboxyesterase: carboxyesterase 0.1 μg/mL. In kind it is physicochemical.
Text: as §1, §2
as §1, with “(FIG. 24C),” for “(see FIG. 24A-24D),”

Data set [4] deals with T1, EY005-stearyl prodrug (H-d-Arg-DMT-Lys-Phe(-O)-stearyl).
T1 sequence: RYKF

Data set [5] concerns the target Albumin. The experiment in a line: pull-down by centrifugation in methyl laurate after 1 hour incubation, HPLC quantification.
Data set [6] has as its target Albumin. As to the kind of experiment: pull-down by centrifugation in methyl laurate after 1 hour incubation, HPLC quantification; unitless ratio.

Regarding `OC[C@H]1O[C@@H]2O[C@H]3[C@H](O)[C@@H](O)[C@@H](O[C@H]4[C@H](O)[C@@H](O)[C@@H](O[C@H]5[C@H](O)[C@@H](O)[C@@H](O[C@H]6[C@H](O)[C@@H](O)[C@@H](O[C@H]7[C@H](O)[C@@H](O)[C@@H](O[C@H]8[C@H](O)[C@@H](O)[C@@H](O[C@H]9[C@H](O)[C@@H](O)[C@@H](O[C@H]1[C@H](O)[C@H]2O)O[C@@H]9CO)O[C@@H]8CO)O[C@@H]7CO)O[C@@H]6CO)O[C@@H]5CO)O[C@@H]4CO)O[C@@H]3CO` [Cyclodextrin gamma], the “μg EY005-stearyl complexed per mg complexation agent” value in data set [1] is 2.3 μg per mg complexation agent.
With “FITC-labeled EY005 native peptide: EY005 native peptide labeled with fluorescein isothiocyanate ([dR][Dmt]KF-OH; also: FITC label, site not given here)”, the Complexation by fluorescence result is “minimal complexation” in the data set with Albumin [2] and “interacted with silica microbeads creating fluorescent round figures” in data set [3] (silica microbeads).
With “FITC-labeled EY005-stearyl prodrug: MTT-prodrug EY005-stearyl fluorescently labeled with fluorescein isothiocyanate (FITC) ([dR][Dmt]KF-{stearyl ester}; also: FITC label, site not given here)”, the Complexation by fluorescence entry is given as “bright fluorescence” with Albumin [2] and “no evidence of complexation” in data set [3] (silica microbeads). Also, the Fluorescence after carboxyesterase result in the data set with Albumin [2] (carboxyesterase 0.1 μg/mL) is “reduced levels of fluorescence”; in data set [3] (cyclodextrin), “reduced levels of fluorescence”; in data set [3] (lecithin), “reduced levels of fluorescence”; in data set [3] (magnesium stearate), “reduced levels of fluorescence”; in data set [3] (silica microbeads), “did not alter extremely low levels of fluorescence”.
On to carboxyesterase, for which the “cleavage of the prodrug ester bond (HPLC)” value in data set [4] was “Incubation of EY005-stearyl with carboxyesterase produced rapid cleavage of the prodrug ester bond, releasing EY005”.
On to H-[dR][Dmt]KF-{stearyl ester} (also: DMT isomer not given here) [EY005-stearyl prodrug (H-d-Arg-DMT-Lys-Phe(-O)-stearyl)], for which the µg EY005-stearyl complexed per mg complexation agent (binding capacity) (µg per mg complexation agent) with Albumin [5] was found to be 4.5. Further, in the data set with Albumin [6], the Calculated Kd ([unbound]/[bound] fraction of prodrug) is 1.34.
